Reference: article PMC6358717 (Proceedings of the National Academy of Sciences of the …, 2018)
Several values for one entry are separate records, joined by “and”; a condition that tells them apart may be missing. Equal entries are not always repeated.

What was measured:
[1] = molecular target: human GPIHBP1 coated on ELISA wells (human) (UniProt Q8IV16); test: ELISA
[2] = molecular target: the molecule itself; test: crystal structure

human GPIHBP1 coated on ELISA wells (human), sequence (Q8IV16 21-151): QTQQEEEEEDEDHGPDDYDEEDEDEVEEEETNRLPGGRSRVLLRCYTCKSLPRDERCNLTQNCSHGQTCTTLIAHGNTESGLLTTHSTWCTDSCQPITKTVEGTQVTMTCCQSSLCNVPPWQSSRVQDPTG

| Molecule | percent reduction of binding against LPL-wt [1] | binding result [2] |
| --- | --- | --- |
| FLAG-tagged human LPL-M404R (from UniProt P06858 28-475) (enzyme) | 79% and 85% | – |
| human lipoprotein lipase harboring an R324A mutation (enzyme, UniProt P06858 28-475, looked up, N-linked glycans at N70 and N386) ADQRRDFIDIESKFALRTPEDTAEDTCHLIPGVAESVATCHFNHSSKTFMVIHGWTVTGMYESWVPKLVAALYKREPDSNVIVVDWLSRAQEHYPVSAGYTKLVGQDVARFINWMEEEFNYPLDNVHLLGYSLGAHAAGIAGSLTNKKVNRITGLDPAGPNFEYAEAPSRLSPDDADFVDVLHTFTRGSPGRSIGIQKPVGHVDIYPNGGTFQPGCNIGEAIRVIAERGLGDVDQLVKCSHERSIHLFIDSLLNEENPSKAYRCSSKEAFEKGLCLSCRKNRCNNLGYEINKVRAKASSKMYLKTRSQMPYKVFHYQVKIHFSGTESETHTNQAFEISLYGTVAESENIPFTLPEVSTNKTYSFLIYTEVDIGELLMLKLKWKSDSYFSWSDWWSSPGFAIQKIRVKAGETQKKVIFCSREKVSHLQKGKAPAVFVKCHDKSLNKKSG | – | binds |
